Legend:
[1] = target: T1, Recombinant Human IL-17 (human, UniProt Q16552 20-155, limits assumed); assay: cell-based or functional assay
T1 sequence (looked up): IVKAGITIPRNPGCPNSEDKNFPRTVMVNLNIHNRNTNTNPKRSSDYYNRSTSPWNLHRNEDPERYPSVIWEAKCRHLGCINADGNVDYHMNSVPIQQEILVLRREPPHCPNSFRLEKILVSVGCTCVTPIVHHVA

[2] = target: T1, Recombinant Human IL-17; assay: Biacore SPR
Procedure: The BIACORE assay (Biacore, Inc, Piscataway, N.J.) determines the affinity of antibodies or DVD-Ig with kinetic measurements of on-rate and off-rate constants. Binding of antibodies or DVD-Ig to a target antigen (for example, a purified recombinant target antigen) was determined by surface plasmon resonance-based measurements with a Biacore® 1000 or 3000 instrument (Biacore® AB, Uppsala, Sweden) using running HBS-EP (10 mM HEPES [pH 7.4], 150 mM NaCl, 3 mM EDTA, and 0.005% surfactant P20) at 25° C. All chemicals were obtained from Biacore® AB (Uppsala, Sweden) or otherwise from a different source as described in the text. For example, approximately 5000 RU of goat anti-mouse IgG, (Fcγ), fragment specific polyclonal antibody (Pierce Biotechnology Inc, Rockford, Ill.) diluted in 10 mM sodium acetate (pH 4.5) was directly immobilized across a CM5 research grade biosensor chip using a standard amine coupling kit according to manufacturer's instructions and procedures at 25 μg/ml. Unreacted moieties on the biosensor surface were blocked with ethanolamine. Modified carboxymethyl dextran surface in flowcell 2 and 4 was used as a reaction surface. Unmodified carboxymethyl dextran without goat anti-mouse IgG in flow cell 1 and 3 was used as the reference surface. For kinetic analysis, rate equations derived from the 1:1 Langmuir binding model were fitted simultaneously to association and dissociation phases of all eight injections (using global fit analysis) with the use of Biaevaluation 4.0.1 software. Purified antibodies or DVD-Ig were diluted in HEPES-buffered saline for capture across goat anti-mouse IgG specific reaction surfaces. Antibodies or DVD-Ig to be captured as a ligand (25 μg/ml) were injected over reaction matrices at a flow rate of 5 μl/min. The association and dissociation rate constants, kₒₙ (M⁻¹s⁻¹) and koff (s⁻¹) were determined under a continuous flow rate of 25 μl/min. Rate constants were derived by making kinetic binding measurements at different antigen concentrations ranging from 10−200 nM. The equilibrium dissociation constant (M) of the reaction between antibodies or DVD-Igs and the target antigen was then calculated from the kinetic rate constants by the following formula: KD=koff/kₒₙ. Binding was recorded as a function of time and kinetic rate constants are calculated.

[3] = target: T1, Recombinant Human IL-17; assay: Biacore SPR; later run, parent printed with DVD1639-DVD1648; kon 4.70E+06, koff 8.50E-05
Procedure: The BIACORE assay (Biacore, Inc, Piscataway, N.J.) determines the affinity of antibodies or DVD-Ig with kinetic measurements of on-rate and off-rate constants. Binding of antibodies or DVD-Ig to a target antigen (for example, a purified recombinant target antigen) was determined by surface plasmon resonance-based measurements with a Biacore® 1000 or 3000 instrument (Biacore® AB, Uppsala, Sweden) using running HBS-EP (10 mM HEPES [pH 7.4], 150 mM NaCl, 3 mM EDTA, and 0.005% surfactant P20) at 25° C. All chemicals were obtained from Biacore® AB (Uppsala, Sweden) or otherwise from a different source as described in the text. […] The association and dissociation rate constants, kₒₙ (M⁻¹s⁻¹) and koff (s⁻¹) were determined under a continuous flow rate of 25 μl/min. […] The equilibrium dissociation constant (M) of the reaction between antibodies or DVD-Igs and the target antigen was then calculated from the kinetic rate constants by the following formula: KD=koff/kₒₙ. Binding was recorded as a function of time and kinetic rate constants are calculated.

IL-17 Neutralization Assay EC50 [1]: 0.0032 nM | koff [2]: 8.5e-05 s⁻¹ | kon [2]: 4.7e+06 M⁻¹ s⁻¹ | Kd [3]: 0.018 nM
B1: AB275 (antibody, human IgG1, kappa, V domains shown)
VH: EVQLVQSGAEVKKPGESVKISCKASGGSFRSYGISWVRQAPGQGLEWMGGITHFFGITDYAQKFQGRVTITADESTTTAYMELSGLTSDDTAVYYCAREPNDFWNGYYDTHDFDSWGQGTTVTVSS
VL: EIVLTQSPDFQSVTPKEKVTITCRASQNIGSELHWYQQKPDQSPKLLIKYASHSISGVPSRFSGSGSGTDFTLTINGLEAEDAATYYCHQSDTLPHTFGQGTKVDIKR
notes: Parent antibody

From patent US20120034160A1 (AbbVie / Abbott, published 2012)
